Results from paper PMC3688735.

Biological target: mKate
Experiment: SEC; gel filtration on a 1x90 cm Econo-column packed with Sephacryl-S200, equilibrated with 25 mM Tris-HCl pH 7.5, 150 mM NaCl; self-association of the purified fluorescent protein

Question: With mKate as the substance, how does the stoichiometry N read?
Answer: 2
